Measurements: patent US7846435 (TEIJIN, dated 2010)

What was measured:
[1] = biological target: VT2, VT2vx1 of E. coli 0157:H7 TK40 (E. coli); assay: cell-based or functional assay
[2] = biological target: T1, E. coli Verotoxin II (VT2) (E. coli, UniProt P09385 23-319; P09386 20-89); assay: BIAcore (SPR)
T1 sequence 1: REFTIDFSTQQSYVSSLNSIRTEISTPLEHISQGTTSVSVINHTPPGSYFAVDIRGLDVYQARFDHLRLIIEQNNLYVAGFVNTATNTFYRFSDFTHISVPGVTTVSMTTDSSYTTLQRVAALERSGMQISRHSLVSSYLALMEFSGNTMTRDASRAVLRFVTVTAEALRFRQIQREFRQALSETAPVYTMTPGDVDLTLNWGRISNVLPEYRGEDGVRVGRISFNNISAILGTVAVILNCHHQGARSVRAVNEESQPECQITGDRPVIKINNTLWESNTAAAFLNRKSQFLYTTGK
T1 sequence 2: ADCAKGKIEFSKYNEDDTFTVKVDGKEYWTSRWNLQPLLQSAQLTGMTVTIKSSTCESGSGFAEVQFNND

[3] = biological target: T1, E. coli Verotoxin II (VT2)

B1: humanized VTm1.1 antibody (HuVTm1.1) (antibody, V domains shown)
VH: EVQLVESGGGLVQPGGSLRLSCAASGFTFSSYGMSWVRQAPGKGLEWVATISTGGSYTYYPDSVKGRFTISRDNSKNTLYLQMNSLRAEDTAVYYCARRGDAWGNLDYWGQGTLVTVSS
VL: EIVLTQSPATLSVSPGERATLSCRASQTISNNLHWYQQKPGQAPRLLIKSASQSISGIPARFSGSGSGTDFTLTISSLESEDFAVYYCQQSYSWPLTFGQGTKVEIK
Q: Which ED50 (µg/ml), in vitro neutralizing assay [1] does the source give for B1 here?
A: 0.35 µg/mL

Q: And the Kd [2]?
A: 3.6 nM

Q: And the koff [2]?
A: 0.00034 s⁻¹

Q: And the kon [2]?
A: 95000 M⁻¹ s⁻¹

Q: And the “factor of difference in competition compared to the mouse antibody” value [3]?
A: ≤ 2 fold
